Assay: yeast display, Sf9 membrane polyspecificity reagent, FACS + sequencing; frameworks hold sequencing errors
Summary of the method: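 After 36–48 hours of galactose induction, yeast (Saccharomyces cerevisiae BJ5465) displaying a synthetic nanobody library were stained at 4 °C for 1 hour with 10% biotinylated, detergent-solubilized Sf9 membrane reagent. Streptavidin microbeads enriched the stained cells before FACS sorting into low and high (top ~1%) gates on anti-HA and streptavidin fluorescence. Each clone's polyreactivity label reflects its gate of origin.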

Row | Sequence | polyreactivity (PSR sort gate)
1 | QVQLVESGGGLVQAGGSLRLSCAASGSTFSNNAMGWYRQAPGNERELVAAISRSGGSTYYADSVKGRFTISRDNAKNTVYLQMNSLKPEDTAVYYCAVSPRYYRNGGAHLQYDYWGQGTHVTVSS | high polyreactivity
2 | QVQLVESGGGLVQAGGSLRLSCAASGSIFQFYAMGWYRQAPGKERELVAVITTSGVSTYYADSVKGRFTISRDNAKNTVYLQMNSLKPEDTAVYYCAADDYYLAGDYWGQGTQVTVSS | low polyreactivity
3 | QVQLVESGGGLVQAGGSLRLSCAASGSTFASYVMGGYSQAPGKERELVAGIDVRGVSTYYADSVKGRFTISRDNAKNTVYLQMNSLKPEDTAVYYCAIDNRYEMDYWGQGTQVTVSS | low polyreactivity
4 | QVQLVESGGGLVQAGGSLRLSCAASGSTSVPYTMGWYRQAPGKERELVAAISSSGGTTNYAVSVKGRFTISRDNAKNTVSLQMNSLKPEDTAVYYCAAEYYQWVAYSWNEMYYWGQGTQVTVSS | low polyreactivity
5 | QDQHVESGGGIVQAGGSLRLICAASGRTFANNAMGWYRQAPGKERELVAAISWSGGSTYYADSVKGRFTISRDNAKNTVYLQMNSLKPEDTAVYYCAADSPRYGGYGYWGQGTHVTVSS | low polyreactivity
6 | QVQLVESGGGLVQAGGSLRLSCAASGSTLYTYAMRWYRQAPGKERELVAAIRLSGGRTYYADSVKGRFTISRDNAKNTVYLQMYSLKPEDTAVYDFAVDWSYSRYDYWGQGTQVTVSS | high polyreactivity
7 | QVQLVESGGGLVQAGGSLRLSCAASGTFKWYAMGWYSQAPGKERELDAVISSSGGTTYYADSVKGRFTISRDNAKNTVYLQMNSLKPEDTAVYYCNKRFRSWTTGSPYDYWGQGTQVTVSS | high polyreactivity
8 | QVQLVESGGGLVQAGGSQRLSCAASGSIFDLKAMGSYRQAPGKERELVAAISSGGGTYYADSVKGRFTISRDNAKNTVYLQMNSLKPEDTAVYYCNRVTRWTYNYWGQGTQVTVSS | high polyreactivity
9 | QVQLVESGGGLVQSGGSLRLSCAASGSTFHTYAMGWYRQAPGKERELFASIRTSGGSTNADSVKGRFTISRDNAKNTVYLQMNSLNPEDTAVYYCAAYYFYGLYDAYYYWGQGTEVTVSS | low polyreactivity
10 | QVQLVESGGGLVQAGGSLRLSCAASGLIFGTNAMGWYRQAPGKERELVAYITSGGSTYADSVKGRFTISRDNAKNTVYLQMNSLKPEDTAVYYCAAYVFWAFYEYDYWGQGTQVTVSS | low polyreactivity
11 | QVQLVESGGGLVQAGGSLRISCAASGSTFEYYAMGWYRQAPGKERELVATISIDGRTNYADSVKGRFTISRDNAKKTVYLQMNSLKPEDTAVYYCAARPYWRHRYDYWGQGTQVTVSS | low polyreactivity
12 | QVQLVESGGGLVQAGGSLRLSCAASGSTFKFNAMGWYRQAPGKETELVATITSRGSRTYYADSVKGRFTISRDNAKNTVYLQMNSLKPEDTAVYYCAARVFRPYGSLYDYWGQGTQVTVSS | high polyreactivity
13 | QVQLVESGGGLVQAGGSLRLSCAASGRIIAYNTMGWNRQAHWKERDWVAAISSRGGRTYYADSVKGRFTISRDNAKNTVYLEMNSLKPEDTAVYYCAAKYYRYGDPDRYDYWGQGTQVTVSS | high polyreactivity
14 | QDQLVESWGGLVQAVGSLRLSCAASGSTFEDYGMGWNRQAPGKERQFVAAIRYSGSSKYADSVKGRFTISRDNAKNTVFLLMKSLIPEDTAVYYCAKYGVRVGFGYSSEYFGQGTQVTVSS | low polyreactivity
15 | QVQLVESGGGLVQAGGSLRLRCAASGSIFTDYAMGGYRQAPGKERELVAVIDIDGSTYYADSVKGRFTISRDNAKNTVYLQMNSLKPEDTAVYDCAAGYTYYSLYGYWGQGTQVTGSS | low polyreactivity
16 | QVQLVESGGGLVQAGGSLRLICAASGFTFNWYAMGWYRQAPGKERELVATISSTGSTYYADSVKGRFTISRDNAKNTVYLQMNSQKPEDTGVYYCAVRRPPYSYYWDFDSWGQGTPVTVSS | high polyreactivity
17 | QVQLVESGGGLVQAGGSLRLSCAASGRIFKYYAMGWYRQPPGKERELVAAISRSSGRTYYADSVKGRCTISRDNAKNTVYFQMIRLKPEDTAVYYCNALPSTVYLTYDYWGLGTQVTVSS | high polyreactivity
18 | QVQLVESGGGLVQAGGSLRLSCAASGYIFGQYAMGWYRQAPGKERELVAAIRRSGGRTYYADSVKGRFTISRDNAKNTVYLQMNSLKPEDTAVYYCNKGPPQTSWRTTLFDYWGQGTQVTVSS | high polyreactivity
19 | QDQLVESGGGLVQAGGSLRLSRAASGLIFYSYAMGWYRQAPGKERELVAAISSGGGRTYYADSVKGRFTISRDNAKNTVDLQMNSLKPEDTAVYYCAAYGSAAQKYPYDRPYRYGYWGQGTQVTVSS | high polyreactivity
20 | QVQLVESGGGLVQAGGSLRLSCAASGRTFYHYVMGWYRQEPGKERELVAAITSRGGSTYYADSVKGRFTISRDNAKNTVYLQMNSLKPEDTAVYYCAARLNYGNKYDYWGQGTQVTVSS | high polyreactivity
21 | QVQLVESGGGLVQAGGSLRLSCAASGSTWWYDMGWSRQAPGKERELVASISSGDSTNYADSVKGRFTISRDNAKNTVYLQMNSLKPEDTAVYYCAADKNSRPAGKGSTGYGYDYWGQGTQVNVSS | low polyreactivity
22 | QVQLVESGGGLVQAGGSLRLSCAASGSTFYRYAMGWYRQAPGKERELVAAITRTGGSTYADSVKGRFTISRDNAKNTVYLQMNSLKPEDTAVYYCAVQRYYVSSISPFYYWGQGTQVTVSS | low polyreactivity

Row | Sequence | polyreactivity (PSR sort gate)
23 | QVQLVESGGGLVQAGGSLRLSCAASGRIIGFNAMGWYRQAPGKERELVASIRTTGGSTRYADSVKGRFTISRDNAKNTVYLQMNSLKPEDTAVYYCAARSRLRYLYDYWGQVTQVTVSS | high polyreactivity
24 | QVQLVESGGGLVQAGGSLRLSCAASGSTFSANAMGWYRQAPGKERELVAAITYRGGNTYYADSVKGRFTISRDNAKNTVYLQLNSLKPEDTAVYYCNRDLRVRYRRLKYGYWGQGTQVTVSS | low polyreactivity
25 | QVQLVESGGGLVQAGGSLRLSCAASGNTFTRNAMGWYRQAPGKERELVAAISYSGGSTYYADSVKGRFTISRDNAKNTVYLQMNSLKPEDTAVYYCATKYYDRFSPYRGDYWGQGTQVTVSS | low polyreactivity
26 | QVQLVESGGGLVQAGGSLRLSCAASGRIFVNYAMGWYRQEPGKERELVAAITSDGSTSYADSVKGRFTISRDTAKNTVYLQMNSLKPDDPAVYYCAKDFFEHSPVSHTYSSSKYDYWGEGTQVTVSS | low polyreactivity
27 | QVQLVESGGGLVQGGGTLRLSCAASGSILSRNTMGWYRQAPGKEREFVADISKGDSTYYADSVKGRFTISRDNAKNTGYLQMNILKPVDTAVYYCAVDSWRRAMWYYGRYGYWGQGTEVTVSS | low polyreactivity
28 | QVQLVESGGGLVQAGGSLRLSCAASGSLFNYYAMAWSRTAPGKERELVAGITTSGGSTYYAESVKGRFRISRDNAKNTVYLQMNSLKPEDTAVYYCAAYDYISSTYFLDDYWGQGTQVTVSS | low polyreactivity
29 | QVQLVESVGGLVQAGGSLRLSCAASGRTLGGNAMGWYRQAPGKERELVAAITNSASTYADSVKGRFTISRDNAKNTVYLQMNSLKPEDTAVYYCNAPDPSDQHGDYWGQGTQVTVSS | low polyreactivity
30 | QVQLVESGGGLVQAGGSLRLSCAASGSIFGFNAMGWYRQAPGKERELVAAINNGGSTNYADSVKGRFTISRDNAKNTVYLQMNSLKPEDTAVYYCAVGTLTYEGFRTYYYWGQGTQVTVSS | high polyreactivity
31 | QVQLVESGGGLVQAGGSLRLSCAASGLTFYVYAMGWYRQAPGKEREFVAAITRSGGSTHFADSVKGGFTISRDNAKYTVYLQMNSLKPEDTAVYYGAARAIRYYIRYYYWGQGTQVTVSS | high polyreactivity
32 | QVQLVESGGGLVQAGGSLRLSCAASGSIFRKYAMGWYRQAPGKERELVAAITGSGGSTYYADSVKGRFTISRDNAKNTVYLQMNSLKPEDTAVYYCAAPFGWRPLPISKVTSDYWGQGTQVTVSS | high polyreactivity
33 | QVQLVESGGGLVQAGASLRLSCAASGSNSKSYAMGWYRPAPGKERELVAAISWRGGSTYADSVKGRFTNSRDNAKNTVYFQMNSQKPVDTAVYYWAATNYGTFWGGQSERYDYWGQGTQVTVSS | low polyreactivity
34 | QVQLVESGGGLVQAGGSLRLSCAASGRIFGQYTMGWYRQAPGKERELVAAISRSSSTKYADSVKGRFTISRDNAKNTVYLQMNSLKPEDTAVYYCAAYVYYYGGRTYDYWGQGTQVTVSS | high polyreactivity
35 | QVQLVESGGGLVQAGGSLRLSCAASGRTFAQNAMGWYRQAPGKERELVAAISSGGGRTYYADSVKGRFTISRDNAKNTVFLQMNSLKREDTAVYYCAAQGWLSYRYSPLKFGYWGQGTQVTVSS | high polyreactivity
36 | QVQLVESGGGLVQAGGSLRLSCAASGRTYGYAMGWYRQAPGKERELVARITWRGGSTSYADSVKGRFTISRENAKNTVYLQMNSLKPEDTAVYYCAAGFNSSDWHYYYRGQGTQVTVSS | high polyreactivity
37 | QVQLVESGGGLVQAGGSLRLSCAPSGSIFPYAMGWYRQAPGKERELVAAITRSGASTYYADSVKGRFTISRDNAKNTVYLQLNSLKPEDTAVYYCAAYALRGVRYPYRVDFYYWGQGTQVTVSS | high polyreactivity
38 | QVQLVESGGGLVQAGGSLRLSCAASRSTFVRNAMGWYREAPGKESELVAASSNVGSTYYADSVKGRFTISRDTAKNTVYFQMNILKPEDTAVYYCTKQLWYHKFNYWGQGTQVTVSA | low polyreactivity
39 | QVQLVESGGGLVQAGGSLRLSCAASGSIFGPYMGWYRQAPGKERELVASVVSTYYADSVKGRFTISRDNAKNTVYLQMNSLKPEDTAVYYCNTQDTKNKSSVFVPSDYWGQGTQVTVSS | low polyreactivity
40 | QFQLVESGGGLVQAGGSLRLSCAASGFTFWLYAMGWYRQAPGKEREFVAAISTSGGSTYADSVKGRFTISRDNAKNTVYLHMNSLKPEDTAVYYCNAGYLLYYDYHLFYWGQGTQVTVSS | low polyreactivity
41 | QVQLEESGGGLVQAGGSLRLSCAASGSIFITYAMGWYRQAPGKERELVAAIRDSGDRTYYADSVKGRFTISRDTAKNTVYLQMNSLKPEDTGVYYCNARWQETLKYDYWGQGTLVTVSS | low polyreactivity
42 | QVQLVESGGGLVQAGGSLRLSCAASGFTIRNNAMGWYRQAPGKERELVAAISYSGGSTYYADSVKGRFTISRDNAKNTVYLQMNSLKPEDTAVYYCNRRRWSYLEYDYWGQGTQVTVSS | low polyreactivity
43 | QVQLVESGGGLVQAGGSLRLSCAASGSIFYRNAMGWYRQAPGKERELVAAISWRGGSTYYADSVKGRFTISRDNAKNTVFLQMNSLKPEDTAVYYCAAAQRVNHVWYDYWGQGTQVTVSS | low polyreactivity

— the nanobody polyreactivity screen of Harvey et al. (2022)
